Measured values: patent US20030124704A1 (YALE UNIVERSITY, published 2003)

Molecular target: Alkaline phosphatase-hNogo-A(1055-1120) (human, UniProt P05187 23-511)
Test: AP-fusion ligand binding to COS-7 cells transfected with myc-mNgR3; expression checked by anti-myc staining and immunoblot
From the text: The mouse NgR3 cDNA was amplified by PCR from mouse adult brain cDNA, from the signal sequence to the stop codon, and ligated into the pSecTag2 vector such that the vector encodes a signal sequence followed by a myc tag followed by the mature mNgR3 sequence. This plasmid was transfected into COS07cells, and expression of a myc-tagged protein of the predicted size was verified by immunoblot analysis.

Sequence of Alkaline phosphatase-hNogo-A(1055-1120) (P05187 other isoform, or with tags, fused parts or gaps): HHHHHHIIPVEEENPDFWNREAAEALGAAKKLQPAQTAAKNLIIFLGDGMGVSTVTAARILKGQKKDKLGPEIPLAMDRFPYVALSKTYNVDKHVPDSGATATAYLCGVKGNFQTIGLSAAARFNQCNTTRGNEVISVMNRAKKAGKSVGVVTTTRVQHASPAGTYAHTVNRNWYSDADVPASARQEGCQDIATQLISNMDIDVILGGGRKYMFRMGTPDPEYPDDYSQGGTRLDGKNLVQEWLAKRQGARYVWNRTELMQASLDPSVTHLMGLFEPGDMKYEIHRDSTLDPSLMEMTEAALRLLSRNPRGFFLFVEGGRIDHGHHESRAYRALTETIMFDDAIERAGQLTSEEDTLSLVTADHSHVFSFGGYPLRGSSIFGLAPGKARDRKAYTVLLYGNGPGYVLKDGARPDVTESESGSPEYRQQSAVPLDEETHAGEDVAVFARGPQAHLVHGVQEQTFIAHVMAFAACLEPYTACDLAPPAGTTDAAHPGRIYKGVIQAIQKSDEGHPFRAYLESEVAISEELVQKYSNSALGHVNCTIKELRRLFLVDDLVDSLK

B1: myc epitope-tagged mouse NgR3 (mNgR3) expressed on COS-7 cells (receptor, not shown: small tags and cut ends)
chain: CPRDCVCYPAPMTVSCQAHNFAAIPEGIPEDSERIFLQNNRITFLQQGHFSPAMVTLWIYSNNITFIAPNTFEGFVHLEELDLGDNRQLRTLAPETFQGLVKLHALYLYKCGLSALPAGIFGGLHSLQYLYLQDNHIEYLQDDIFVDLVNLSHLFLHGNKLWSLGQGIFRGLVNLDRLLLHENQLQWVHHKAFHDLHRLTTLFLFNNSLTELQGDCLAPLVALEFLRLNGNAWDCGCRARSLWEWLRRFRGSSSAVPCATPELRQGQDLKLLRVEDFRNCTGPVSPHQIKSHTLTTSDRAARKEHHPSHGASRDKGHPHGHPPGSRSGYKKAGKNCTSHRNRNQISKVSSGKELTELQDYAPDYQHKFSFDIMPTARPKRKGKCARRTPIRAPSGVQQAS
notes: The cDNA was amplified from mouse adult brain; Any processing of the C-terminal GPI signal is not described; also called myc-NgR3
binding result: no binding
